Source: paper PMC9984387, “The dynamic nature of netrin-1 and the structural basis for glycosaminoglycan fragment-induced filament formation” (Nature Communications, 2023)

Biological target: His-tagged NET1ΔC (coated in ELISA) (not stated (chicken or mouse cDNA cloned))
Assay: ELISA; NET1ΔC coated; serial dilutions of strep-tagged HSPGs (0.5–500 nM) in solution; detection with strep-HRP; apparent constants

Kd: 10 to 20 nM
Substance: glypican-3 (AF185614 aa 25-557 R357A) (from UniProt Q8CFZ4 25-557) (domain or fragment)
